From patent US20090030181A1 (KOREA RESEARCH INSTITUTE OF BIOSCIENCE AND BIOTECHNOLOGY, published 2009)
Where no end group is shown, it is not given here.

Target: T1, human mdm2 N-terminal domain, mdm2(3-109) (human, UniProt Q00987 3-109)
T1 construct: Expressed in E. coli BL21(DE3) from a pLM1 vector; Uniformly 15N-labelled (or 15N,13C-labelled) where it is the observed species in NMR; unlabelled when used as titrant and when immobilised on the CM5 chip
Test: SPR (BIAcore 2000), mdm2(3-109) amine-coupled on CM5, peptide injected at 1.5625-50 µM, equilibrium fit

T1 sequence (Q00987 3-109 limits assumed): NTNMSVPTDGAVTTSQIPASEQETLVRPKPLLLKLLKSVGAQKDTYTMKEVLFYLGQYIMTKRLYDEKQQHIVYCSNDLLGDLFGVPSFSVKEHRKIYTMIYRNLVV

B1: native p53 TAD(49-54) peptide (peptide)
peptide: DIEQWF-NH2
notes: Synthetic, solid phase; also called p53 (49-54); p53(49-54) peptide
Binder B1 has a Kd of 25 µM.
